Consider one molecule from publication PMC9742198 (Immunity, 2022).

This assay has as its target SARS-CoV-2 receptor-binding domain (ancestral RBD) (SARS-CoV-2 (ancestral), UniProt P0DTC2). Nature of the assay: ELISA.

B1: CAB-I12 (antibody, V domains shown)
VH: QVQLVQSGAEVKKPGSSVKVSCKASGDTFSRYSISWVRQAPGQGLEWMGRIIPMFATANYAQKFQGRVTITADKTTSIAYMELSSLRSEDTAVYYCARANYYYESGGYHFDNWGQGTLVTVSS
VL: EIVLTQSPGTLSLSPGERATLSCRASQSVGSSYLAWYQQKPGQAPRLLIYGASTRATGIPHRFSGSGSGTDFTLTISRLEPEDFAVYYCQQYHNSPRTFGQGTKV
Regarding B1, the binding result is on record as “binds”.
